140 substances from the supplement of paper PMC12042874 can be followed below.

± gives the uncertainty stated by the source.

A short description of this data set: amyloid nucleation score (Sup35N fusion, yeast selection) (log enrichment); library NNK1; higher = more nucleation; inactive = no reads after selection. Put shortly:
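Nucleation score is defined as the DiMSum log enrichment of output over input reads, with centring on the mode score of non-aggregating sequences. A minimum of 100 input reads was required for each sequence. Reads came from Illumina sequencing of plasmid inserts from psi-negative yeast expressing Sup35N fused to peptides of 20 random codons, induced with 100 μM copper sulfate for 24 hours and grown 7 days at 30°C on medium lacking adenine and uracil.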
The substance SNVICRGR showed an amyloid nucleation score of 1.41 ± 0.31.

Take ADGWFQFWRGKYFGGRFQFT: the amyloid nucleation score was -0.166 ± 0.61.

Turning to TNGNGFIRRFTRAYFFT, the amyloid nucleation score was -0.338 ± 0.5.

As for LCFLTSIQCTALLDHQLVPR, the amyloid nucleation score amounted to 6.17 ± 0.079.

Consider IFHSAVQTNLSGGCRAGVWL, for which the amyloid nucleation score is 0.254 ± 0.83.

As to TNITNLSSFVMDDTGWSVNE, the amyloid nucleation score entry was “inactive”.

MKRASSLMINFMMPCNFYCG showed an amyloid nucleation score of 0.532 ± 0.62.

As for SQSTLCSHTP, the amyloid nucleation score turned out to be 1.13 ± 0.74.

For the substance TCLCD, the amyloid nucleation score worked out at 1.52 ± 0.46.

Substance SIHVGVSRG came in with an amyloid nucleation score of 0.806 ± 0.35.

As to FRVMILLLTEMWSMESNRDL, the amyloid nucleation score was determined as 3.4 ± 0.14.

For TSDRVVPFGSISWKGCSRVR, the amyloid nucleation score was -0.981 ± 0.85.

As for SVGSLRRFSDFIYWNVVLNM, the amyloid nucleation score was -0.3 ± 0.58.

The substance SFGTQPGQISVN came in with an amyloid nucleation score of -0.856 ± 2.4.

GNAFFTYMINNYVSYFWHMP displayed an amyloid nucleation score of 6.42 ± 0.059.

With NVSNLGSLMSTYGESCLVNF, the amyloid nucleation score entry is “inactive”.

Take FGINVSIFTESLWLNYC: the amyloid nucleation score amounted to 4.52 ± 0.052.

Substance AACGWHRLICNKFSQFTRGP yielded an amyloid nucleation score of -0.021 ± 0.75.

Substance VLTVAGF registered an amyloid nucleation score of -0.561 ± 0.44.

Take RLSNLVRPLDRLIGVVEVGM: the amyloid nucleation score worked out at 0.469 ± 0.42.

With CYWSFKSAVAGPLSSESEGS, the amyloid nucleation score was 4.4 ± 0.095.

Substance RAWASVLGSFGIGVSCCGA registered an amyloid nucleation score of -0.85 ± 1.2.

Substance TCLRACVHLVNYGVDMFSDK gave an amyloid nucleation score of 1.83 ± 0.32.

The substance LQYGNWPGGVFVWWFIKMHH gave an amyloid nucleation score of -0.02 ± 0.71.

The substance SECIVFYIPTYKHD displayed an amyloid nucleation score of 7.909 ± 0.059.

For TPSSAFFDAMLNLQQVQSKC, the amyloid nucleation score result was “inactive”.

RIIYGCCAVRFARSMAKHPM yielded an amyloid nucleation score of -0.716 ± 0.38.

The substance EWKNGSHMWLQRLGESWNRL registered an amyloid nucleation score of -0.413 ± 0.35.

As for APDRNDHDKLCCLCDNWSAL, the amyloid nucleation score was 0.056 ± 1.4.

In the case of YTGSL, the amyloid nucleation score was -0.498 ± 0.63.

SQIASVINAQSSMCRFV came in with an amyloid nucleation score of -0.023 ± 0.38.

In turn, QYHYNGGLPRQFK returned an amyloid nucleation score of -0.534 ± 0.54.

On to CSSFAQ, for which the amyloid nucleation score is 0.549 ± 0.31.

In turn, LFRGT showed an amyloid nucleation score of -0.457 ± 0.27.

For RSRAISIKWCIGVGHPGNWV, the amyloid nucleation score entry is “inactive”.

For the substance RPPNISLSQFYDVSCAKLRC, the amyloid nucleation score was determined as 0.295 ± 0.31.

LAGNVS showed an amyloid nucleation score of 0.503 ± 0.67.

Substance WCMATCLIMVCANYVICLVG had an amyloid nucleation score of 0.927 ± 0.55.

Turning to MNKFNCRIMDDSDSALFSIA, the amyloid nucleation score was found to be 0.486 ± 0.4.

Take TDCHS: the amyloid nucleation score entry was “inactive”.

On to FDRSWRGFAGPRQRTGLVVF, for which the amyloid nucleation score is -0.178 ± 0.51.

In the case of LWYKIGFLIWSRTGTLYQGI, the amyloid nucleation score was 0.273 ± 0.3.

The substance KFNITFVSVKSYKVPLSLDI returned an amyloid nucleation score of 4.81 ± 0.066.

ICCVVESLCYSVMFKHIS had an amyloid nucleation score of 4.55 ± 0.079.

YTRSVL came in with an amyloid nucleation score of 0.2 ± 0.23.

Take ATQNLKY: the amyloid nucleation score worked out at 0.824 ± 0.79.

Take NVTDAI: the amyloid nucleation score result was “inactive”.

MFARLNF returned an amyloid nucleation score of 3.98 ± 0.062.

FLVQVAWFLPAGGYGDNFCC returned an amyloid nucleation score of 0.049 ± 0.39.

For the substance DSRFHSLGVLAHMPRDCNCG, the amyloid nucleation score amounted to 0.853 ± 0.86.

Substance RSGVVIVVLSVYGSSQRARG came in with an amyloid nucleation score of -0.108 ± 0.4.

Substance GGFFICQGDTRVV had an amyloid nucleation score of 0.222 ± 0.58.

TIDVCDSHLMAYTVDWNCVW: the amyloid nucleation score worked out at 0.505 ± 0.62.

In the case of MDKSTMVGIKCTMRVSRQMG, the amyloid nucleation score is -0.158 ± 0.56.

The substance TGSHLPRDGSVSKCVFRY showed an amyloid nucleation score of 0.248 ± 0.53.

As for KTLRNNLLFIQSTPK, the amyloid nucleation score was 0.1 ± 0.28.

Turning to RLNVILGLTSTLNYSSVMPR, the amyloid nucleation score amounted to 3.67 ± 0.17.

PWITCCKVNGIFLTDRCRVV showed an amyloid nucleation score of 0.574 ± 0.3.

For the substance SRFWGER, the amyloid nucleation score worked out at 0.801 ± 0.62.

Substance VILSYRLSEWGSSGDGDGRR had an amyloid nucleation score of -0.562 ± 0.8.

CTIWPSQDGRGCTLCGSRL came in with an amyloid nucleation score of 0.348 ± 0.75.

With KNFYDIKPLYALYSENLRLH, the amyloid nucleation score was determined as 0 ± 0.46.

Substance SDVEEGLRL displayed an amyloid nucleation score of 1.08 ± 0.57.

Substance KRFTRTNILRMTCT came in with an amyloid nucleation score of 0.901 ± 0.48.

AQDLPLVTRNCKCMRRHLWV yielded an amyloid nucleation score of -0.171 ± 0.42.

CIFFVNTGHGYLWQDYAHSN gave an amyloid nucleation score of 3.58 ± 0.15.

As to QYVIQAYACTWCRCGKLQSG, the amyloid nucleation score worked out at 7.693 ± 0.065.

Consider CTRHMHTSRKFQALLSWCVT, for which the amyloid nucleation score was -0.316 ± 0.47.

LNGTLSCNAISFFIMFA had an amyloid nucleation score of 0.846 ± 0.44.

Substance ICYVNVL registered an amyloid nucleation score of -1.18 ± 1.7.

On to RFLSMWSHCQLMF, for which the amyloid nucleation score entry was “inactive”.

In turn, DGEAPKGSTGWTCGRVNERD came in with an amyloid nucleation score of -0.125 ± 0.6.

As to RRHPS, the amyloid nucleation score entry is “inactive”.

For SGCGPNGIRFWVRLEVGNTT, the amyloid nucleation score was determined as 0.016 ± 0.33.

Consider MTEQAQ, for which the amyloid nucleation score was found to be 0.286 ± 1.4.

In turn, QLESMIYCVVSFYAAGVNFE came in with an amyloid nucleation score of -0.468 ± 1.9.

On to SFVRGFYVNFRFSKGILDMF, for which the amyloid nucleation score was -0.082 ± 0.32.

PNFWVRFKYGYLSSLNSRTV returned an amyloid nucleation score of -0.375 ± 0.52.

MFSTKSH had an amyloid nucleation score of 0.543 ± 0.49.

Consider QNPRIKFIQHVPIYNEGTLP, for which the amyloid nucleation score was 1.17 ± 0.43.

On to TVWTGQRRMRVSTGCLWSGG, for which the amyloid nucleation score entry was “inactive”.

SRLRCMEH came in with an amyloid nucleation score of 2.51 ± 0.15.

MRITILYYLGKQNRSFWWFC had an amyloid nucleation score of 0.108 ± 0.35.

As to WFSRTPWYFVFRCNDDMDCS, the amyloid nucleation score result is “inactive”.

In the case of KEGLRDGLLCRYQTCAG, the amyloid nucleation score stood at 0.091 ± 0.48.

SMVYAYAAIILGWWNWGRGC gave an amyloid nucleation score of 0.003 ± 1.1.

As to LHKIHNAIDILS, the amyloid nucleation score was found to be 0.504 ± 0.56.

VIKSRP yielded an amyloid nucleation score of 0.639 ± 0.42.

Turning to AYGKRTNTRICDNKTLGVSS, the amyloid nucleation score was -0.745 ± 2.4.

As for HVYLTWTGLVGLKWCSGCSA, the amyloid nucleation score is -0.856 ± 2.4.

Substance KHPEM gave an amyloid nucleation score of 1.43 ± 0.38.

On to MDVPFLRKN, for which the amyloid nucleation score is 0.154 ± 0.66.

On to FATFRMSCPAKTVSVAVIGG, for which the amyloid nucleation score was -0.069 ± 0.77.

WEWSTGFRCC registered an amyloid nucleation score of 0.566 ± 0.48.

As to LQNVGRENEESTCERRSKVY, the amyloid nucleation score entry was “inactive”.

PILCGTSLSQINDYYGV registered an amyloid nucleation score of -0.369 ± 0.56.

The substance LWYVAPHVTRSNFEVQGGCG showed an amyloid nucleation score of -0.249 ± 0.34.

With SRSSCQVMVSRDAADVLHRI, the amyloid nucleation score was determined as 0.423 ± 0.58.

For LAPNDGGRALSVDMRGWCDW, the amyloid nucleation score result was “inactive”.

Take VVRFCYTEEVRVFNQASLRE: the amyloid nucleation score was 0.134 ± 0.5.

LGQHRKPSYKHSAKHKLFVD registered an amyloid nucleation score of 0.519 ± 0.36.

On to RNIVRFCNRSFRILLRGSAT, for which the amyloid nucleation score entry is “inactive”.

On to NYFAIPCFESWSWRMYKVGF, for which the amyloid nucleation score worked out at 0.186 ± 0.9.

For the substance MILRVVCHLNVCS, the amyloid nucleation score was 6.921 ± 0.05.

TSSVEVNPERVITISGTVS registered an amyloid nucleation score of -0.018 ± 0.17.

As for LAFTSLSNLYEDMCYQDWMV, the amyloid nucleation score was found to be 1.82 ± 0.36.

YFVSCLFILWPRQSSTRPFE yielded an amyloid nucleation score of 8.165 ± 0.077.

Substance WHSIADLNLVDYEICVNFFY had an amyloid nucleation score of -0.75 ± 1.5.

Substance FMATNTKAMGPLRSAK registered an amyloid nucleation score of 0.224 ± 0.58.

As for RDHCARYHARDGTEPYSGHR, the amyloid nucleation score result is “inactive”.

Substance ISYMHKLCLFSFYLDHKLTL displayed an amyloid nucleation score of -1.49 ± 1.4.

On to LYACNFFVFISRPAGMDSAS, for which the amyloid nucleation score came out at 5.29 ± 0.079.

On to VNVTCMFWD, for which the amyloid nucleation score amounted to 4.05 ± 0.058.

For SDSFLSSYHSFMRDVWV, the amyloid nucleation score came to 0.872 ± 0.58.

Consider TFKKWMRIVYNLISKLKSRH, for which the amyloid nucleation score was determined as 2.98 ± 0.081.

Regarding SIANNKRTKTVGLMLSCRSS, the amyloid nucleation score came to 3.79 ± 0.14.

In the case of NMLGSFPLTVLRKAWCCGSL, the amyloid nucleation score came to 1.04 ± 0.57.

For the substance ASAWGLGYEFPWSRSYSAKT, the amyloid nucleation score was -0.209 ± 0.9.

As for FRSTPWNPMSTELVIFSPSV, the amyloid nucleation score came out at 1.16 ± 0.43.

In the case of IVIFPFFLVISDLYVVVSLG, the amyloid nucleation score is -0.077 ± 0.53.

Substance RVSVVQFMSKVPTRLMVIEW yielded an amyloid nucleation score of 0.705 ± 0.65.

Take RADIKAIMLNYMIFA: the amyloid nucleation score entry was “inactive”.

The substance ISYSLRGSVRR showed an amyloid nucleation score of -0.032 ± 0.41.

In turn, VIESG returned an amyloid nucleation score of 1.34 ± 0.93.

On to FSRCCTFSSDYFNARCIERN, for which the amyloid nucleation score was 1.22 ± 0.23.

EDAWGIIEEIIGWRGCGRLA: the amyloid nucleation score was -0.84 ± 0.74.

MNEERVGNLIFCRDSFMSSW gave an amyloid nucleation score of -0.096 ± 0.97.

Regarding RFSKNE, the amyloid nucleation score is 0.523 ± 0.87.

In turn, DAIPFMFPNLMVMK showed an amyloid nucleation score of 0.155 ± 0.55.

Turning to DVSNTVFFTLLYLLGPRCRS, the amyloid nucleation score amounted to 0.721 ± 0.38.

YLVMRMMVLRMAKPKIVGRD displayed an amyloid nucleation score of 5.524 ± 0.051.

The substance RGDGTRNRRCAIFSN yielded an amyloid nucleation score of -0.064 ± 0.99.

Substance QWLYYVKEPIAYSLL yielded an amyloid nucleation score of 0.46 ± 0.24.

For the substance NYLLWVAHPIVSY, the amyloid nucleation score is -0.502 ± 0.34.

HNCCDEVCGSNSGLFFRFMN registered an amyloid nucleation score of 0.979 ± 0.65.

For FYPIYGFRWTIFYQPALYNL, the amyloid nucleation score is -1.08 ± 1.7.

TKLVLWLVA registered an amyloid nucleation score of -0.429 ± 0.71.

The substance MGCKAKRAFVEFLSRMEVRP showed an amyloid nucleation score of -0.035 ± 0.22.

As for MPYLNGHYRH, the amyloid nucleation score result was “inactive”.

For IISDDNSGMWWVMFLV, the amyloid nucleation score was found to be 0.065 ± 0.61.
